Results from article doi:10.1101/2024.09.18.613542 (bioRxiv, 2024).
Where two headings read alike, the source gives them in different places.

Legend:
Experiment in all cases: ELISA
8His-TEV-RoxP_1 = target: T1, 8His-TEV-RoxP_1 (Cutibacterium acnes KPA171202)
T1 chain: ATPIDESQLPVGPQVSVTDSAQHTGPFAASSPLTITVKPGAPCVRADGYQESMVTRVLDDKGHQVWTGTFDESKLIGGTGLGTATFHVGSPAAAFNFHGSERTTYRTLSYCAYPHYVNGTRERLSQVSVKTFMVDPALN

RoxP_11-tagless = target: T2, RoxP_11-tagless (Cutibacterium porci (WP_154564006.1))
T2 chain: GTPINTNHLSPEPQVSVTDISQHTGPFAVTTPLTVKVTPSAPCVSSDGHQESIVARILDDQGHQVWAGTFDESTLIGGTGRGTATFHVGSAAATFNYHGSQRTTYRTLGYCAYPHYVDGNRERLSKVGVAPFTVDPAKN

[1] = target: T3, endogenous RoxP secreted by C. acnes strain KPA171202 (Cutibacterium acnes KPA171202, UniProt Q6A6F6)
[2] = target: T4, endogenous RoxP secreted by C. acnes strain ATCC 6919 (Cutibacterium acnes ATCC 6919 …, UniProt Q6A6F6, strain)
[3] = target: T3, endogenous RoxP secreted by C. acnes …; remark: listed apart in the source
[4] = target: T4, endogenous RoxP secreted by C. acnes …; remark: listed apart in the source

B1: 4D8H1 (antibody, V domains shown)
VH: EVKLLESGGGLVQPGGSLKLSCAASGFDFSRYWMSWVRQAPGKGLEWIGEINPDSSTINYTPSLKDKFIISRDNAKNTLYLQMSKVRSEDTALYYCARYYSRFAYWGQGTLVTVSA
VL: QAVVTQESALTTSPGETVTLTCRSSTGAVTTRNYANWVQEKPDHLFTGLIGDTNNRAPGVPARFSGSLIGDKAALTITGAQTEDEAIYFCALWYSNHWVFGGGTKLTVL
Does B1 bind (8His-TEV-RoxP_1)?
Result: binds

Does B1 bind (RoxP_11-tagless)?
Result: no binding (tested: 155 ng/mL)

Does B1 bind [1]?
Result: binds

Does B1 bind [2]?
Result: binds

B2: 3E10E3 (antibody, V domains shown)
VH: QVTLKESGPGILQPSQTLSLTCSFSGFSLSTYGIGVGWIRQPSGKGLEWLAHIWWNDNKYYNTALKSRLTISKDTSNNQVFLKIASVDTADTATYYCARSLPYFDYWGQGTTLTVSS
VL: DIQMTQSPASLSASVGETVTITCRASENIYSYLAWYQQKQGKSPQFLVYNAKTLAEGVPSRFSGSGSGTQFSLKINSLQPEDFGSYYCQHHYGIPRTFGGGTKLEIK
Does B2 bind (8His-TEV-RoxP_1)?
Result: binds

Does B2 bind (RoxP_11-tagless)?
Result: binds

B3: 2H2F3 (antibody, V domains shown)
VH: QVQLQQSGAELVRPGVSVKISCKGSGYTFTDYAMHWVKQSHAKSLEWIGIISTYYGNASYNQKFKGKATMTVDKSSSTAYMELARLTSEDSAIYYCARVPYYGSSYAMDYWGQGTSVTVSS
VL: DVLMTQTPLSLPVSLGDQASISCRSSQNIVHSDGNTYLEWYLQKPGQSPKLLIYKVSNRFSGVPDRFSGSGSGTDFTLKISRVEAEDLGVYYCFQGSHVPWTFGGGTKLEIK
Does B3 bind (8His-TEV-RoxP_1)?
Result: binds

B4: 5F3D11 (antibody, V domains shown)
VH: not shown
VL: DVVMTQTPLSLPVSLGDQASISCRSSQSLVHSNGNTYLHWYLQKPGQSPKLLIYKVSNRFSGVPDRFSGSGSGTDFTLKISRVEAEDLGVYFCSQSTHVPPTFGGGTKLEIK
Does B4 bind (8His-TEV-RoxP_1)?
Result: binds

B5: biotinylated-2H2F3 (antibody, V domains shown)
VH: QVQLQQSGAELVRPGVSVKISCKGSGYTFTDYAMHWVKQSHAKSLEWIGIISTYYGNASYNQKFKGKATMTVDKSSSTAYMELARLTSEDSAIYYCARVPYYGSSYAMDYWGQGTSVTVSS
VL: DVLMTQTPLSLPVSLGDQASISCRSSQNIVHSDGNTYLEWYLQKPGQSPKLLIYKVSNRFSGVPDRFSGSGSGTDFTLKISRVEAEDLGVYYCFQGSHVPWTFGGGTKLEIK
Does B5 bind [3]?
Result: binds

Does B5 bind [4]?
Result: binds
